The assay addresses biotinylated 151AcPhe mutant GFP [GFP: P42212]. The assay can be described thus: SAv-dependent gel-shift assay, 10% native PAGE.

Take “streptavidin (from UniProt P22629 37-163)”: the percent of GFP band retarded turned out to be 80%.

The values are drawn from patent publication US20030228593A1.
